Results taken from paper doi:10.1101/2021.08.24.457465.
Like-named read-outs stand apart in the source and are kept apart here.

T1: ToPif1 (wild type) (Thermus oshimai, UniProt K7RJ88 64-507)
T1 sequence: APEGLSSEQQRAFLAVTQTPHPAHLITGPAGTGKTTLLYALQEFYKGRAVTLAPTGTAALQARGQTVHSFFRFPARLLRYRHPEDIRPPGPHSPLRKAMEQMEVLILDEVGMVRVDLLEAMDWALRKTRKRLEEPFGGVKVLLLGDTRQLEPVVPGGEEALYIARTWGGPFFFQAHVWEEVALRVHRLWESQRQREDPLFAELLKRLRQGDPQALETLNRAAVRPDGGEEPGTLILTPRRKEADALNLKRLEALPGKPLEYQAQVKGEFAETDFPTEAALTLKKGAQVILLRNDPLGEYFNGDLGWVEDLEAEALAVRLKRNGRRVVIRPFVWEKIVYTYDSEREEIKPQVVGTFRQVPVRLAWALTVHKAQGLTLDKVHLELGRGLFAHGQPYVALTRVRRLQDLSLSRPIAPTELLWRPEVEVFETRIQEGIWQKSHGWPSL

T2: ToPif1 (wild type), crystal (Thermus oshimai, UniProt K7RJ88 64-507)
T2 sequence: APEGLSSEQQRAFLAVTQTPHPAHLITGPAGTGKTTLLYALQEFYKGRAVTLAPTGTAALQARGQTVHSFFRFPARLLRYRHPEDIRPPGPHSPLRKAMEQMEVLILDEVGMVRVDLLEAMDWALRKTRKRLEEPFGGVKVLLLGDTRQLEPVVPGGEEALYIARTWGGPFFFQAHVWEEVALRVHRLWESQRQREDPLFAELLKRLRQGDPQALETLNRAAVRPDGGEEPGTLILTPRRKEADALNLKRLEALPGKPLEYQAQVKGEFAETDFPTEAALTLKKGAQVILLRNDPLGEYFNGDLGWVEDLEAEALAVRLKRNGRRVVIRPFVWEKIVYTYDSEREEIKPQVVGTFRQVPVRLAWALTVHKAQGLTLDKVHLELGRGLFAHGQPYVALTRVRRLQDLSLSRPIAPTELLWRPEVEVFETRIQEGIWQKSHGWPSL


Tests used:
ToPif1 (wild type) [1] = target: T1, ToPif1 (wild type); test: fluorescence anisotropy
ToPif1 (wild type) [2] = target: T1, ToPif1 (wild type); test: fluorescence anisotropy; remark: listed apart in the source
ToPif1 (wild type) [3] = target: T1, ToPif1 (wild type); test: fluorescence anisotropy; remark: listed apart in the source
[4] = target: T2, ToPif1 (wild type), crystal; test: X-ray crystallography
ToPif1 (wild type) [5] = target: T1, ToPif1 (wild type); test: fluorescence anisotropy; remark: listed apart in the source

Binder	Kd (ToPif1 (wild type) [1]) [nM]	Kd (ToPif1 (wild type) [2]) [nM]	Kd (ToPif1 (wild type) [3]) [nM]	binding result [4]	Kd (ToPif1 (wild type) [5]) [nM]
GGGTTAGGGTTAGGGTTAGGG (structured_DNA) [G4Tel]	~29.6	–	–	–	–
TTTTTTTTTTTT (ssDNA) [T12]	~29.1	29.1 ± 0.53	26.5 ± 0.71	–	–
TTTTTTGGGTGGGTGGGTGGGTTTTTTTT (structured_DNA) [G4T6/T8]	–	–	–	binds	–
AGGGTGGGTGGGTGGG (structured_DNA) [G4CEB]	~23.3	30.3 ± 1.17	–	–	30.9 ± 2.32
